According to PMC4540320, “A Newly-Identified Polymorphism in Rhesus Macaque Complement Factor H Modulates Binding Affinity for Meningococcal FHbp” (PLoS ONE, 2015):

B1: recombinant Factor H binding protein (FHbp) ID 1 (natural protein)
chain: CSSGGGGVAADIGAGLADALTAPLDHKDKGLQSLTLDQSVRKNEKLKLAAQGAEKTYGNGDSLNTGKLKNDKVSRFDFIRQIEVDGQLITLESGEFQVYKQSHSALTAFQTEQIQDSEHSGKMVAKRQFRIGDIAGEHTSFDKLPEGGRATYRGTAFGSDDAGGKLTYTIDFAAKQGNGKIEHLKSPELNVDLAAADIKPDGKRHAVISGSVLYNQAEKGSYSLGIFGGKAQEVAGSAEVKTVNGIRHIGLAAKQ
notes: also called meningococcal FHbp; source: recombinant, purified as described previously [14] with a second ion exchange chromatography step (HiTrap SP HP)

Tests used:
[1] = target: rhesus macaque serum Factor H, sequence type HP/YS (heterozygous) (rhesus macaque (endogenous in serum)); test: SPR; Biacore X100 Plus, CM5 chip with immobilised goat anti-human FH; FH (~600 RU) captured from a 1:50 serum dilution; FHbp 3.16 to 316 nM in solution, single-cycle kinetics, 1:1 binding model
[2] = target: rhesus macaque serum Factor H, sequence type YS/YP (heterozygous) (rhesus macaque (endogenous in serum)); test: as above
[3] = target: rhesus macaque serum Factor H, sequence type HP/HP (H352 with P360, homozygous) (rhesus macaque (endogenous in serum)); test: as above
[4] = target: rhesus macaque serum Factor H, sequence type HP/YP (heterozygous) (rhesus macaque (endogenous in serum)); test: as above
[5] = target: T1, human complement Factor H (human (endogenous in serum), UniProt P08603 19-1231); test: as above; conditions: one partner purified
T1 construct: also called human FH; human serum FH; source: endogenous, human serum; also purified from the same subject
T1 sequence (P08603 19-1231): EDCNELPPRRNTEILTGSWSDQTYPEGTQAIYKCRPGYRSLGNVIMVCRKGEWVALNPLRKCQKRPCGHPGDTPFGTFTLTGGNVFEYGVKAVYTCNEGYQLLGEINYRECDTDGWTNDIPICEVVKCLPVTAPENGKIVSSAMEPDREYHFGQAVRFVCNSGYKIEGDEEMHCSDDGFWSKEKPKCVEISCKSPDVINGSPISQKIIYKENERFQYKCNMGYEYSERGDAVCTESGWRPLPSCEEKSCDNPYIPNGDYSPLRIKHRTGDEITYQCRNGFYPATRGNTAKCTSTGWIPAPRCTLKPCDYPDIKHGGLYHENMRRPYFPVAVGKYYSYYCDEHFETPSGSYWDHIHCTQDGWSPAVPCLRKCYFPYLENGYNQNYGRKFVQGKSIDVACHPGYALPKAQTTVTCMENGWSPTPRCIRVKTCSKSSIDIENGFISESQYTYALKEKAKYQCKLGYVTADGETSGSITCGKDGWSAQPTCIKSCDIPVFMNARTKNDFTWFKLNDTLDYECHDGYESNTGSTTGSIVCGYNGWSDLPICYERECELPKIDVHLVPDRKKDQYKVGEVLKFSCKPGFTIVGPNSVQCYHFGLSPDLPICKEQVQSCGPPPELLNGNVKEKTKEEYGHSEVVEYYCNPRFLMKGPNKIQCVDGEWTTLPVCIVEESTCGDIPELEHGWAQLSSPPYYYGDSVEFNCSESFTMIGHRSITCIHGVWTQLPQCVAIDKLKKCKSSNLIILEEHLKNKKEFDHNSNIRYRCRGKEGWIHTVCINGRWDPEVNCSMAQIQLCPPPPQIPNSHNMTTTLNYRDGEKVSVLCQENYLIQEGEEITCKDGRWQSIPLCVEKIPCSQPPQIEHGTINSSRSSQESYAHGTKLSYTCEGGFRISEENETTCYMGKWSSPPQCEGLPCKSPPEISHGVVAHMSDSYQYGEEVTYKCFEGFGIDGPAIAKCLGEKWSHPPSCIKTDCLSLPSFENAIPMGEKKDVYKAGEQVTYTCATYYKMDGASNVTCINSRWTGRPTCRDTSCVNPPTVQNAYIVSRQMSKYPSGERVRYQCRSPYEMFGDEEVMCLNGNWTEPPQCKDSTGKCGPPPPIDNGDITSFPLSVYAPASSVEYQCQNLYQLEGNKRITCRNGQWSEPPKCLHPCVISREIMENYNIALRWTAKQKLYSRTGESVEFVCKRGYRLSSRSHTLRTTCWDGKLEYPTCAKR

[6] = target: T1, human complement Factor H; test: SPR; as the serum capture assay, but with human FH purified from the same subject captured on immobilised goat anti-human FH; FHbp in solution, single-cycle kinetics, 1:1 binding model; conditions: both partners purified

Molecule	Kd [1]	kon [1]	Kd [2]	kon [2]	Kd [3]	kon [3]	Kd [4]	kon [4]	Kd [5]	kon [5]	Kd [6]	kon [6]
recombinant Factor H binding protein (FHbp) ID 1 (from UniProt Q9JXV4 20-274) (natural protein)	99.5 nM	190000 M⁻¹ s⁻¹	10.4 nM	180000 M⁻¹ s⁻¹	100 nM	180000 M⁻¹ s⁻¹	18.2 nM	180000 M⁻¹ s⁻¹	–	–	–	–
B1	–	–	–	–	–	–	–	–	19.8 nM	190000 M⁻¹ s⁻¹	18.2 nM	220000 M⁻¹ s⁻¹
